# Measurements reported in patent publication US20110008340A1 (published 2011).
# T1: TSR5 peptide (human)
# T1 construct: Synthetic peptide 'corresponding to TSR5'; also called TSR5 segment of properdin
# T1 peptide: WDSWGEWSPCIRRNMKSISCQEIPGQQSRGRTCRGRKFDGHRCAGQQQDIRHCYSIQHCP
# T2: TSR6 peptide (human)
# T2 construct: Synthetic peptide 'corresponding to TSR6'; also called TSR6 segment of properdin
# T2 peptide: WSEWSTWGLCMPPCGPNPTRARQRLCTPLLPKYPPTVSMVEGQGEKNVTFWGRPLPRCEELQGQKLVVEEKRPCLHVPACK
# B1: Properdin peptide RYRRCVGWNG (99-108) (peptide)
# peptide: RYRRCVGWNG
# B2: MoAb^71-110 (antibody, V domains shown)
# VH: QVLLQQSAPELARPGASVKMSCTASGYIFTNYPIHWVKQRPGQGLEWIGFIDPGGGYDEPDERFRDRATLTADKSSSTAYMQLSSLTSEDSAIYYCARRGGGYYLDYWGQDTTLTVSA
# VL: SIVMTQTPKFLLVSAGDRITITCKASQSVNNDVAWYQQKPGQSPKLLIYYASNRYTGVPDRFTGSGYGTDFTFTITTVKAEDLAVYFCQQDYSSPLTFGAGTKLELK
# notes: Mouse monoclonal antibody from a hybridoma; also called MoAbB^71-110; anti properdin antibody clone MoAb^71-110
# How the values were obtained:
# human C3b = human C3b (human, UniProt P01024 23-667; P01024 749-1663, limits assumed); experiment: cell-based or functional assay
# TSR5 peptide = target: T1, TSR5 peptide; experiment: ELISA on plate-bound peptide
# Description: (§1) Screening Assay: Microtiter plates were coated with peptide⁷¹⁻¹¹⁰. (2.0 μg/50 μl per well), TSR5 and TSR6 peptides in phosphate buffered saline (PBS) overnight at 4° C. After aspirating the peptide solutions, the wells were blocked with PBS containing 1% bovine serum albumin (BSA) for 2 hours at room temperature. Wells without peptide coating served as background controls. […] The plate was incubated at room temperature for 1-hour. The plate developed using standard ELISA methods described above.
# TSR6 peptide = target: T2, TSR6 peptide; experiment: ELISA on plate-bound peptide
# Description: as §1
Binder,"IC50 of inhibition of MAC (C5b-9) formation, LPS-coated wells, 10% normal human serum (human C3b) [mg/L]",binding result (TSR5 peptide),binding result (TSR6 peptide)
B1,~50,–,–
B2,–,no binding,no binding
